Tests used:
[1] = biological target: T1, RAC incubated with LPMO9B (Thermothelomyces thermophilus, UniProt G2QCJ3); test: RAC hydrolysis assay with LPMO9B and PPO2, PPO7 or AbTyr in the presence of sinapic acid or syringic acid; type: biochemical, Myceliophthora thermophila; conditions: for Activity: total release of non-oxidized and C1-oxidized gluco-oligosaccharides from RAC: LPMO9B 5 μg/ml alone = 100%, or with added enzyme, pH 5.0, 50° C., 24 h
T1 construct: made in house; host or cells: Myceliophthora thermophila C1 strain W1L#100.1Δpyr5ΔAlp1
T1 sequence (G2QCJ3 19-323): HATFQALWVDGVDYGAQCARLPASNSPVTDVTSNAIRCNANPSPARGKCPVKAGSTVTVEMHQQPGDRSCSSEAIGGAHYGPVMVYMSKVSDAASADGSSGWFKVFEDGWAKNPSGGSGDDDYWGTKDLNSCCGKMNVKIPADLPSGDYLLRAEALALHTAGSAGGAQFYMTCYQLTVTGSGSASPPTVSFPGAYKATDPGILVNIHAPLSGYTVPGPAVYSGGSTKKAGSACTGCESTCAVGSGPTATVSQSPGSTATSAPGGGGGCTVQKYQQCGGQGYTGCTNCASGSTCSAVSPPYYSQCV
Procedure: Reducing agents sinapic acid and syringic acid were obtained from Sigma-Aldrich (St. Louis, Mo., USA). RAC was prepared from Avicel by swelling it in phosphoric acid, (Zhang Y H P, Cui J, Lynd L R, & Kuang L R (2006) A transition from cellulose swelling to cellulose dissolution by o-phosphoric acid: Evidence from enzymatic hydrolysis and supramolecular structure. Biomacromolecules 7(2):644-648.). RAC was dissolved in 50 mM phospate buffer (pH 5.0) to a final concentration of 1.5 mg/ml. Copper chloride was added to a final concentration of 2.5 μM and dimethoxy containg reducing agent sinapic acid or syringic acid to a final concentration of 2 mM. LPMO9B (5 μg/ml) with or without PPO2 (5 μg/ml), PPO7 (5 μg/ml) or AbTyr (7.5 U/ml) were added and incubated for 24 h at 50° C. in a head-over-tail rotator in portions of 1 mL total volume (Stuart® rotator, Bibby Scientific LTD, Stone, UK) at 20 rpm. Products were analysed by HPAEC and MALDI-TOF MS as described previously. (Frommhagen M, Sforza S, Westphal A H, Visser J, Hinz S W, Koetsier M J et al. Discovery of the combined oxidative cleavage of plant xylan and cellulose by a new fungal polysaccharide monooxygenase. Biotechnology for Biofuels. 2015; 8:101. doi:10.1186/s13068-015-0284-1). The Activity denoted as “Activity*” represents total release of non-oxidized and C1-oxidized gluco-oligosaccharides from RAC incubated with LPMO9B in the presence of sinapic or syringic acid as a reducing agent and with addition of either AbTyr, PPO7 or PPO2. […] Standard deviations were less than 2%.

[2] = biological target: T1, RAC incubated with LPMO9B; test: RAC hydrolysis assay with LPMO9B and PPO7 or AbTyr in the presence of phenolic reducing agents; type: biochemical, Myceliophthora thermophila; conditions: for Activity: total release of non-oxidized and C1-oxidized gluco-oligosaccharides from RAC: LPMO9B alone = 100%, or with added enzyme, pH 5.0, 50° C., 24 h
Procedure: Phenolic reducing agents were obtained from Sigma-Aldrich (St. Louis, Mo., USA). RAC was prepared as described above and dissolved in 50 mM phospate buffer (pH 5.0) to a final concentration of 1.5 mg/ml. Copper chloride was added to a final concentration of 2.5 μM and a phenolic reducing agent to a final concentration of 2 mM. LPMO9B (5 μg/ml) with or without PPO7 (5 μg/ml) or AbTyr (7.5 U/ml) were added and incubated for 24 h at 50° C. in a head-over-tail rotator in portions of 1 mL total volume (Stuart® rotator, Bibby Scientific LTD, Stone, UK) at 20 rpm. Products were analysed by HPAEC and MALDI-TOF MS as described previously. (Frommhagen M, Sforza S, Westphal A H, Visser J, Hinz S W, Koetsier M J et al. Discovery of the combined oxidative cleavage of plant xylan and cellulose by a new fungal polysaccharide monooxygenase. Biotechnology for Biofuels. 2015; 8:101. doi:10.1186/s13068-015-0284-1). The Activity denoted as Activity * represents total release of non-oxidized and C1-oxidized gluco-oligosaccharides from RAC incubated with LPMO9B in the presence of a phenolic reducing agent and with addition of either AbTyr or PPO7. […] Standard deviations were less than 2%.

[3] = Conversion of syringic acid, sinapic acid and syringol by crude PPOs, absorbance at 400 nm; type: biochemical; conditions: 4 mM substrate, crude PPO 8.2 μg/mL, pH 6.0 or 7.0, 50 μM CuSO4, room temperature, 2, 22 and 118 h
Procedure: Syringic acid, sinapic acid and syringol (4 mM) were incubated with crude PPO2, 4, 6 and 7 from Example 5 in 100 mM BisTris buffer pH 6.0 or 7.0 with 50 μM CuSO4. Crude PPOs were dosed on target protein with a final concentration of 8.2 μg/mL. Substrate blanks prepared without the addition of enzyme and enzyme blanks without the addition of substrate were included. Incubations were performed in microtiterplates with a total reaction volume of 150 μL at room temperature for approximately 120 h. After 2, 22 and 118 h absorbance at 400 nm was measured.

[4] = Catechol oxidase activity assay: initial rate of 3-methoxycatechol oxidation at 400 nm (pH, copper and temperature optima); type: biochemical
Procedure: PPO activity was determined by measuring the initial rate of 3-methoxycatechol oxidation at 400 nm (extinction coefficient used: ε 1200 M^−1cm^−1). One unit of activity is defined as the amount of PPO activity that oxidizes 1 μmol of 3-methoxycatechol to quinone per minute. Substrate was used at a concentration of 4 mM.
The pH optima were determined by measuring the initial rate of 3-methoxycatechol oxidation with varying pHs, at room temperature and using a CuSO4 concentration of 10 μM. The pH was varied in the range of pH3-9 using Carmody buffers. Enzyme loading was applied resulting in A400 absorbance values in the range of 0.1-1. Protein concentration was determined using the BCA method.
Optimal copper concentrations for the PPOs were determined at the optimal pH by varying the concentration of CuSO4 in the range of 1-1000 μM. In these experiments the pH was controlled using 50 mM Bis-Tris buffer pH 7.0.
Temperature optima were determined by measuring A400 absorbance after 1 h incubation at temperatures in the range of 20 to 70° C. In these experiments the pH was controlled using 50 mM Bis-Tris buffer pH 7.0. Copper concentrations of (20 or 50 μM) were used to prevent chemical oxidation as background activity at higher copper concentrations.

B1: LPMO9B: Myceliophthora thermophila lytic polysaccharide monooxygenase, mature amino acid sequence SEQ ID NO: 93 (protein, listed as Myceliophthora thermophila)
chain: T1 sequence (G2QCJ3 19-323)
With B1 as the molecule, how does the “Activity in the absence of a reducing agent” value ([1]; no reducing agent) read?
Its value is “no activity was detected”.

What about the “Activity: total release of non-oxidized and C1-oxidized gluco-oligosaccharides from RAC” value ([1]; reducing agent sinapic acid 2 mM) of the same molecule?
Its value is 100%.

What about the “Activity: total release of non-oxidized and C1-oxidized gluco-oligosaccharides from RAC” value ([1]; reducing agent syringic acid 2 mM) of the same molecule?
The value was 100%.

And the “Activity in the absence of a reducing agent” value ([2]; no reducing agent)?
Its value is “no activity was detected”.

What about the “Activity: total release of non-oxidized and C1-oxidized gluco-oligosaccharides from RAC” value ([2]; reducing agent 3,4-dihydroxy-5-methoxybenzoic acid 2 mM) of the same molecule?
The value was 100%.

And the “Activity: total release of non-oxidized and C1-oxidized gluco-oligosaccharides from RAC” value ([2]; reducing agent 3,4-dihydroxy-5-methoxycinnamic acid 2 mM)?
Its value is 100%.

What about the “Activity: total release of non-oxidized and C1-oxidized gluco-oligosaccharides from RAC” value ([2]; reducing agent 3,4-dihydroxybenzoic acid 2 mM) of the same molecule?
The value was 100%.

What about the “Activity: total release of non-oxidized and C1-oxidized gluco-oligosaccharides from RAC” value ([2]; reducing agent 3-hydroxy-4-methoxycinnamic acid 2 mM) of the same molecule?
The value was 100%.

What about the “Activity: total release of non-oxidized and C1-oxidized gluco-oligosaccharides from RAC” value ([2]; reducing agent 3-methylcatechol 2 mM) of the same molecule?
The value was 100%.

What about the “Activity: total release of non-oxidized and C1-oxidized gluco-oligosaccharides from RAC” value ([2]; reducing agent 4-allyl-2,4-methoxyphenol 2 mM) of the same molecule?
Its value is 100%.

And the “Activity: total release of non-oxidized and C1-oxidized gluco-oligosaccharides from RAC” value ([2]; reducing agent 4-hydroxy-3-methoxyphenylactone 2 mM)?
Its value is 100%.

What about the “Activity: total release of non-oxidized and C1-oxidized gluco-oligosaccharides from RAC” value ([2]; reducing agent caffeic acid 2 mM) of the same molecule?
Its value is 100%.

What about the “Activity: total release of non-oxidized and C1-oxidized gluco-oligosaccharides from RAC” value ([2]; reducing agent coniferyl aldehyde 2 mM) of the same molecule?
The value was 100%.

What about the “Activity: total release of non-oxidized and C1-oxidized gluco-oligosaccharides from RAC” value ([2]; reducing agent ferulic acid 2 mM) of the same molecule?
The value was 100%.

And the “Activity: total release of non-oxidized and C1-oxidized gluco-oligosaccharides from RAC” value ([2]; reducing agent gallic acid 2 mM)?
Its value is 100%.

And the “Activity: total release of non-oxidized and C1-oxidized gluco-oligosaccharides from RAC” value ([2]; reducing agent guaiacol 2 mM)?
Its value is 100%.

And the “Activity: total release of non-oxidized and C1-oxidized gluco-oligosaccharides from RAC” value ([2]; reducing agent hesperidin 2 mM)?
The value was 100%.

What about the “Activity: total release of non-oxidized and C1-oxidized gluco-oligosaccharides from RAC” value ([2]; reducing agent homovanillic acid 2 mM) of the same molecule?
The value was 100%.

What about the “Activity: total release of non-oxidized and C1-oxidized gluco-oligosaccharides from RAC” value ([2]; reducing agent vanillic acid 2 mM) of the same molecule?
Its value is 100%.

B2: PPO6: Myceliophthora thermophila C1 polyphenoloxidase with demethylating activity, mature form SEQ ID NO: 41 (protein, listed as Myceliophthora thermophila)
chain: AVKTVVITATTTVCPLSTRVCHGSSMISQSTNAPCSESTGITGSQSTAVTIPQSTDIISSQFSQFTDTTSSLSTGVACSSSPCPSNSQSTGTTSFESTGTTISQPTAVTNSSSTCLTSSQSTDAPSSESTGITISQSTGVTSSQSMSTPTSKSTAVPSSQSARVSTTSSSAKPSSTTETRPEPTLPNRAYPADIVDKLRDSGVDKLKEYLKSNPSNTGCTLENASIRREWSDLSVAEREEYIAAVKCLQSASPKSSKQQVPGARSRFDDFVATHINQTDSIHYTANFLSWHRYYVWAYEKALREECGYTGFQPYWNWDRYAADPANSPLFSGNSSSLSGNSVNGGCVTTGPFADMKVNLGPGASLAYNPRCLKRNISKSYAAMTTADKTYALITGSADIARFQDTMQAVPGVHAGGHFTIGGDPGGDVYSSPGDPAFWLHHAMIDRVWWIWQTHGLPGRLSEVAGSVAGSSRPGSGKDLVNLGVNGPAVAIENLLNTVGGLDGKMCYIYL
For B2, which “Conversion of substrates (absorbance at 400 nm)” value [3] is on record?
The value was “able to convert syringic acid, sinapic acid and syringol”.

And the pHopt ([4]; 3-methoxycatechol oxidation, room temperature, 10 μM CuSO4, Carmody buffers pH3-9)?
The pHopt was 7.0.

What about the T range ([4]; >50% of maximum activity) of the same molecule?
Its T range is 20-50 °C.

And the pH range ([4]; >50% of maximum activity)?
Its pH range is 6.0-8.5.

And the “[CuSO4] range” value ([4]; >90% of maximum activity)?
The value was 50 to 1000 µM.

And the Topt ([4]; A400 after 1 h incubation, 20 to 70° C., 50 mM Bis-Tris pH 7.0, 20 or 50 μM copper)?
Its Topt is 30 °C.

What about the “[CuSO4]opt” value ([4]; at optimal pH, 50 mM Bis-Tris buffer pH 7.0, CuSO4 varied 1-1000 μM) of the same molecule?
Its value is 200 µM.

— US20190002846A1, “POLYPEPTIDES HAVING DEMETHYLATING ACTIVITY” (Genencor International B.V., priority 2015, published 2019)
